# Data as given in patent US20260000736A1, “PURIFIED LACTOFERRIN COMPOSITIONS AND METHODS OF USE” (Lactea Therapeutics LLC, priority 2023, published 2026).
# “Also recorded” adds a separate entry of the source.
# B1: Sigma-Lf: Sigma Aldrich Lactoferrin L9507 (Research Standard) (protein, UniProt P24627 20-708, looked up)
# Lactotransferrin: APRKNVRWCTISQPEWFKCRRWQWRMKKLGAPSITCVRRAFALECIRAIAEKKADAVTLDGGMVFEAGRDPYKLRPVAAEIYGTKESPQTHYYAVAVVKKGSNFQLDQLQGRKSCHTGLGRSAGWIIPMGILRPYLSWTESLEPLQGAVAKFFSASCVPCIDRQAYPNLCQLCKGEGENQCACSSREPYFGYSGAFKCLQDGAGDVAFVKETTVFENLPEKADRDQYELLCLNNSRAPVDAFKECHLAQVPSHAVVARSVDGKEDLIWKLLSKAQEKFGKNKSRSFQLFGSPPGQRDLLFKDSALGFLRIPSKVDSALYLGSRYLTTLKNLRETAEEVKARYTRVVWCAVGPEEQKKCQQWSQQSGQNVTCATASTTDDCIVLVLKGEADALNLDGGYIYTAGKCGLVPVLAENRKSSKHSSLDCVLRPTEGYLAVAVVKKANEGLTWNSLKDKKSCHTAVDRTAGWNIPMGLIVNQTGSCAFDEFFSQSCAPGADPKSRLCALCAGDDQGLDKCVPNSKEKYYGYTGAFRCLAEDVGDVAFVKNDTVWENTNGESTADWAKNLNREDFRLLCLDGTRKPVTEAQSCHLAVAPNHAVVSRSDRAAHVKQVLLHQQALFGKNGKNCPDKFCLFKSETKNLLFNDNTECLAKLGGRPTYEEYLGTEYVTAIANLKKCSTSPLLEACAFLTR
# B2: Lactoferrin (“Reagent”): reagent grade Lactoferrin, comparable research grade reference product (protein, UniProt P24627 20-708, looked up)
# Lactotransferrin: B1 Lactotransferrin
# Legend:
# [1] = system: E. coli 0157; test: Bacterial growth inhibition, OD600 after 16 h; assay type: cell-based; details: 1 mg/mL Lf, 16 h at 37° C.
# Protocol: As an analytical standard for the assessment of Lactoferrin (Lf) activity, 1 mg/mL Lf was added to 10∝CFU/mL E. coli 0157 in LB and incubated for 16 h at 37° C. Lactea Lactoferrin (Lactea-Lf) was produced as described in the above examples. Assessed were three independent lots of Lactea-Lf, impure samples which were generated by co-eluting Lactoperoxidase and Lactoferrin (co-elution), samples with degradation products generated by eluting Lactoferrin from old milk which was left for three days (Degradation Products), and a Sigma Aldrich Lactoferrin L9507 (Research Standard). As shown in FIG. 16 and quantified in Table 5, in the Lactea-Lf lots assessed, less than 5% the total growth of bacteria was observed as assessed by OD600 relative to the growth of untreated bacteria under these conditions. In this case, co-elution samples were samples which have a detectable peak of LPO as observable in MALDI-TOF M/S or HPLC. Degradation Products had identifiable degradation peaks as observed in HPLC or DSC.
# [2] = system: E. coli 0157; test: Biofilm formation, crystal violet assay; assay type: cell-based; details: for Biofilm Inhibition, Replicate 1 / Biofilm Inhibition, Replicate 2 / Biofilm Inhibition, Replicate 3: 24 hours
# Protocol: Lactoferrin was assessed for biofilm growth inhibition. To study the relative concentration dependent efficacy of Lactea-Lf and the Sigma Aldrich research standard Lactoferrin in inhibiting biofilm formation, Lf was added at concentrations ranging from 2 mg/mL to 0.31 mg/mL (2-fold serial dilution curve) to E. coli 0157 in LB seeded at 10∝CFU/mL and incubated for 37° C. for 24 hours. Lactea Lactoferrin (Lactea-Lf) was produced as described in the above examples. The biofilm was stained using a standard crystal violet assay. A quantification of the inhibition of biofilm formation (FIG. 18A) and an image of a representative plate (FIG. 18B) are shown.
# [3] = DSC of additional batches, ratio of apo to holo-Lactoferrin; assay type: physicochemical; details: 5 mg/mL, 30° C. to 100° C. range
# Protocol: Additional batches of Lactea-Lf as described in the above examples and the relative ratio of apo to holo-Lactoferrin was assessed by Differential Scanning Calorimetry (DSC). Lactoferrin samples were loaded at 5 mg/mL into a NanoDSC (TI Instruments) and measured in the 30° C. to 100° C. range. […] It is likely that these peaks are smaller as the sample is highly impure or contains already denatured product.
# [4] = system: lactoperoxidase (LPO); test: Enzymatic colorimetric assay for lactoperoxidase (LPO) activity; assay type: biochemical; details: colorimetric peroxidase substrate
# Text: An enzymatic assay for lactoperoxidase (LPO) activity was developed utilizing a molecule which in the presence of peroxidase activity turns a blue color.
# [5] = system: E. coli 0157; test: Bacterial growth timecourse, OD600; assay type: cell-based; details: 1 mg/mL; for Bacterial Growth Timecourse, Replicate 1 / Bacterial Growth Timecourse, Replicate 2 / Bacterial Growth Timecourse, Replicate 3: OD600 relative to no treatment control at 24 hours
# Protocol: For a more detailed comparison of Lactea-Lf antimicrobial activity relative to the Sigma Aldrich Lactoferrin, Lactea-Lf and Sigma Aldrich Lactoferrin were incubated at 1 mg/mL with for E. coli 0157 in LB seeded at 10∝CFU/mL. […] Results were quantified and reported as a percent of the OD600 of the no treatment control at 24 hours for all timepoints.
# [6] = system: SARS-CoV-2; test: SARS-CoV-2 Cytopathic Effect (CPE) reduction assay in Vero E6 cells; assay type: cell-based; details: Vero E6 cells, MOI of 0.001, neutral red, three days post-infection
# [7] = 10∝CFU/mL E. coli 0157 in LB, OD600 relative to untreated
molecule,measurement,setting,value
B1,"Relative Bacterial Growth, Replicate 1",[1]; [7],0.8089
same,"Relative Bacterial Growth, Replicate 2",[1]; [7],0.8162
same,"Relative Bacterial Growth, Replicate 3",[1]; [7],0.7726
same,antibacterial activity compared with other samples,[1],less activity than any lot of co-elution or degraded product
same,"inhibition of biofilm formation, in words","[2]; E. coli 0157, 24 hours","only appears to demonstrate inhibition of biofilm in the low mg/mL range, but never completely eliminates biofilm formation"
same,"Biofilm Inhibition, Replicate 1",[2]; [Lf] 0.031 mg/mL,0.6588
same,"Biofilm Inhibition, Replicate 2",[2]; [Lf] 0.031 mg/mL,0.9283
same,"Biofilm Inhibition, Replicate 3",[2]; [Lf] 0.031 mg/mL,0.854
same,"Biofilm Inhibition, Replicate 1",[2]; [Lf] 0.063 mg/mL,0.2439
same,"Biofilm Inhibition, Replicate 2",[2]; [Lf] 0.063 mg/mL,0.1943
same,"Biofilm Inhibition, Replicate 3",[2]; [Lf] 0.063 mg/mL,0.3058
same,"Biofilm Inhibition, Replicate 1",[2]; [Lf] 0.125 mg/mL,0.1583
same,"Biofilm Inhibition, Replicate 2",[2]; [Lf] 0.125 mg/mL,0.1464
same,"Biofilm Inhibition, Replicate 3",[2]; [Lf] 0.125 mg/mL,0.5378
same,"Biofilm Inhibition, Replicate 1",[2]; [Lf] 0.25 mg/mL,0.1929
same,"Biofilm Inhibition, Replicate 2",[2]; [Lf] 0.25 mg/mL,0.2837
same,"Biofilm Inhibition, Replicate 3",[2]; [Lf] 0.25 mg/mL,0.358
same,"Biofilm Inhibition, Replicate 1",[2]; [Lf] 0.5 mg/mL,0.126
same,"Biofilm Inhibition, Replicate 2",[2]; [Lf] 0.5 mg/mL,0.192
same,"Biofilm Inhibition, Replicate 3",[2]; [Lf] 0.5 mg/mL,0.1942
same,"Biofilm Inhibition, Replicate 1",[2]; [Lf] 1 mg/mL,0.05367
same,"Biofilm Inhibition, Replicate 2",[2]; [Lf] 1 mg/mL,0.09846
same,"Biofilm Inhibition, Replicate 3",[2]; [Lf] 1 mg/mL,0.1465
same,"Biofilm Inhibition, Replicate 1",[2]; [Lf] 2 mg/mL,0.09652
same,"Biofilm Inhibition, Replicate 2",[2]; [Lf] 2 mg/mL,0.03678
same,"Biofilm Inhibition, Replicate 3",[2]; [Lf] 2 mg/mL,0.08427
same,"relative ratio of apo to holo-Lactoferrin, DSC peak pattern",[3],one lot was almost entirely holo-Lf and had two peaks in the holo-Lf range; also recorded: two faint peaks with slightly more holo-Lf than apo-Lf
same,LPO enzymatic activity (blue color reaction),[4],does not result in a positive enzymatic reaction
same,time at which bacterial growth became observable / evident,[5]; E. coli 0157 in LB,6 h
same,"Bacterial Growth Timecourse, Replicate 1",[5]; 3 h,0.04197
same,"Bacterial Growth Timecourse, Replicate 2",[5]; 3 h,0.0345
same,"Bacterial Growth Timecourse, Replicate 3",[5]; 3 h,0.04414
same,"Bacterial Growth Timecourse, Replicate 1",[5]; 6 h,0.6058
same,"Bacterial Growth Timecourse, Replicate 2",[5]; 6 h,0.6264
same,"Bacterial Growth Timecourse, Replicate 3",[5]; 6 h,0.6363
same,"Bacterial Growth Timecourse, Replicate 1",[5]; 9 h,0.6012
same,"Bacterial Growth Timecourse, Replicate 2",[5]; 9 h,0.6124
same,"Bacterial Growth Timecourse, Replicate 3",[5]; 9 h,0.6341
same,"Bacterial Growth Timecourse, Replicate 1",[5]; 12 h,0.6658
same,"Bacterial Growth Timecourse, Replicate 2",[5]; 12 h,0.6702
same,"Bacterial Growth Timecourse, Replicate 3",[5]; 12 h,0.6326
same,"Bacterial Growth Timecourse, Replicate 1",[5]; 15 h,0.6543
same,"Bacterial Growth Timecourse, Replicate 2",[5]; 15 h,0.6602
same,"Bacterial Growth Timecourse, Replicate 3",[5]; 15 h,0.6251
same,"Bacterial Growth Timecourse, Replicate 1",[5]; 18 h,0.6295
same,"Bacterial Growth Timecourse, Replicate 2",[5]; 18 h,0.6201
same,"Bacterial Growth Timecourse, Replicate 3",[5]; 18 h,0.599
same,"Bacterial Growth Timecourse, Replicate 1",[5]; 21 h,0.6512
same,"Bacterial Growth Timecourse, Replicate 2",[5]; 21 h,0.5981
same,"Bacterial Growth Timecourse, Replicate 3",[5]; 21 h,0.5984
same,"Bacterial Growth Timecourse, Replicate 1",[5]; 24 h,0.6668
same,"Bacterial Growth Timecourse, Replicate 2",[5]; 24 h,0.6205
same,"Bacterial Growth Timecourse, Replicate 3",[5]; 24 h,0.6407
B2,EC50,[6],140 nM
